Experimental data as given in article PMC2528193.
pKd: −log10 of the molar value. Several values for one entry are separate records, joined by “and”; a condition that tells them apart may be missing. Identical values can stand only once.

Assays:
[1] = system: PfHUp (processed PfHU, bacterial histone-like protein) (Plasmodium falciparum); test: EMSA
[2] = target: predicted processed PfHU (P. falciparum bacterial histone-like protein), recombinant (P. falciparum); test: cross-linking
[3] = target: predicted processed PfHU (P. falciparum bacterial histone-like protein), recombinant (P. falciparum); test: SDS-resistant dimer on SDS-PAGE with anti-His Western blot

30 bp probe
pKd [1]: 7.20

predicted processed PfHU (P. falciparum bacterial histone-like protein), recombinant (domain or fragment)
stoichiometry N [2]: 2 and 4
stoichiometry N [3]: 2
